The values that follow come from patent US7304127.

First the molecules themselves.
B1: CXCR4 5-22 (peptide)
peptide: SIYTSDNYTEEMGSGDYD
modifications: not checked
B2: CCR5 317-334 (peptide)
peptide: AKRFCKCCSIFQQEAPER
modifications: not checked
B3: CXCR4 29-46 (peptide)
peptide: FREENANFNKIFLPTIYS
modifications: not checked
B4: CCR5 333-350 (peptide)
peptide: ERASSVYTRSTGEQEISV
modifications: not checked
B5: CXCR4 1-18 (peptide)
peptide: MEGISIYTSDNYTEEMGS
modifications: not checked
B6: CXCR4 33-50 (peptide)
peptide: NANFNKIFLPTIYSIIFL
modifications: not checked
B7: CCR5 297-314 (peptide)
peptide: YAFVGEKFRNYLLVFFQK
modifications: not checked
B8: CCR5 33-50 (peptide)
peptide: LPPLYSLVFIFGFVGNML
modifications: not checked
B9: CXCR4 53-70 (peptide)
peptide: IVGNGLVILVMGYQKKLR
modifications: not checked
B10: CCR5 265-282 (peptide)
peptide: GLNNCSSSNRLDQAMQVT
modifications: not checked
B11: CCR5 277-294 (peptide)
peptide: QAMQVTETLGMTHCCINP
modifications: not checked
B12: CCR5 257-274 (peptide)
peptide: LNTFQEFFGLNNCSSSNR
modifications: not checked
B13: CCR5 337-352 (peptide)
peptide: SVYTRSTGEQEISVGL
modifications: not checked
B14: CCR5 305-322 (peptide)
peptide: RNYLLVFFQKHIAKRFCK
modifications: not checked
B15: CCR5 25-42 (peptide)
peptide: VKQIAARLLPPLYSLVFI
modifications: not checked
B16: CCR5 313-330 (peptide)
peptide: QKHIAKRFCKCCSIFQQE
modifications: not checked
B17: CCR5 329-346 (peptide)
peptide: QEAPERASSVYTRSTGEQ
modifications: not checked
B18: CXCR4 45-62 (peptide)
peptide: YSIIFLTGIVGNGLVILV
modifications: not checked
B19: CCR5 289-306 (peptide)
peptide: HCCINPIIYAFVGEKFRN
modifications: not checked
B20: CCR5 309-326 (peptide)
peptide: LVFFQKHIAKRFCKCCSI
modifications: not checked
B21: CCR5 293-310 (peptide)
peptide: NPIIYAFVGEKFRNYLLV
modifications: not checked
B22: CXCR4 49-66 (peptide)
peptide: FLTGIVGNGLVILVMGYQ
modifications: not checked
B23: CXCR4 21-38 (peptide)
peptide: YDSMKEPCFREENANFNK
modifications: not checked
B24: CCR5 321-338 (peptide)
peptide: CKCCSIFQQEAPERASSV
modifications: not checked
B25: CCR5 285-302 (peptide)
peptide: LGMTHCCINPIIYAFVGE
modifications: not checked
B26: CCR5 281-298 (peptide)
peptide: VTETLGMTHCCINPIIYA
modifications: not checked
B27: CXCR4 41-58 (peptide)
peptide: LPTIYSIIFLTGIVGNGL
modifications: not checked
B28: CCR5 261-278 (peptide)
peptide: QEFFGLNNCSSSNRLDQA
modifications: not checked
B29: CCR5 273-290 (peptide)
peptide: NRLDQAMQVTETLGMTHC
modifications: not checked
B30: CXCR4 17-34 (peptide)
peptide: GSGDYDSMKEPCFREENA
modifications: not checked
B31: CCR5 301-318 (peptide)
peptide: GEKFRNYLLVFFQKHIAK
modifications: not checked
B32: CCR5 269-286 (peptide)
peptide: CSSSNRLDQAMQVTETLG
modifications: not checked
B33: CXCR4 13-30 (peptide)
peptide: TEEMGSGDYDSMKEPCFR
modifications: not checked
B34: CXCR4 37-54 (peptide)
peptide: NKIFLPTIYSIIFLTGIV
modifications: not checked
B35: CCR5 29-46 (peptide)
peptide: AARLLPPLYSLVFIFGFV
modifications: not checked
B36: CXCR4 25-42 (peptide)
peptide: KEPCFREENANFNKIFLP
modifications: not checked
B37: CXCR4 9-26 (peptide)
peptide: SDNYTEEMGSGDYDSMKE
modifications: not checked

Where “and” joins values, the source holds several entries; their conditions need not be identical. Equal entries are not always repeated.

In one test the target is HIV-1LAI envelope gp120 labeled with radioactive iodine (HIV-1 LAI), P03377. Briefly: 125I-gp120, peptide array.
As to B1, the counts minus background (counts per 20 min) is 71.

For the molecule B2, the counts minus background (counts per 20 min) was 64.

With B3, the counts minus background (counts per 20 min) worked out at 51.

With B4, the counts minus background (counts per 20 min) is 84.

Turning to B5, the counts minus background (counts per 20 min) was 2590.

For B6, the counts minus background (counts per 20 min) turned out to be 173.

Turning to B7, the counts minus background (counts per 20 min) came out at 596.

B8: the counts minus background (counts per 20 min) was 705.

For the molecule B9, the counts minus background (counts per 20 min) was determined as 238.

Take B10: the counts minus background (counts per 20 min) was -31.

For the molecule B11, the counts minus background (counts per 20 min) was found to be 81.

Turning to B12, the counts minus background (counts per 20 min) is 293.

In the case of B13, the counts minus background (counts per 20 min) came out at 47.

Turning to B14, the counts minus background (counts per 20 min) was determined as 65.

B15: the counts minus background (counts per 20 min) was 18.

On to B16, for which the counts minus background (counts per 20 min) came to 23.

Regarding B17, the counts minus background (counts per 20 min) was 84.

Turning to B18, the counts minus background (counts per 20 min) amounted to 123.

For the molecule B19, the counts minus background (counts per 20 min) came to 200.

With B20, the counts minus background (counts per 20 min) stood at 76.

As to B21, the counts minus background (counts per 20 min) was found to be 162.

With B22, the counts minus background (counts per 20 min) came out at 246.

On to B23, for which the counts minus background (counts per 20 min) turned out to be 53.

As for B24, the counts minus background (counts per 20 min) is 53.

On to B25, for which the counts minus background (counts per 20 min) was found to be 282.

B26: the counts minus background (counts per 20 min) was 15.

As for B27, the counts minus background (counts per 20 min) was 118.

Take B28: the counts minus background (counts per 20 min) is 63.

On to B29, for which the counts minus background (counts per 20 min) was 10.

As for B30, the counts minus background (counts per 20 min) is -28.

On to B31, for which the counts minus background (counts per 20 min) worked out at 69.

Take B32: the counts minus background (counts per 20 min) is 90.

In the case of B33, the counts minus background (counts per 20 min) came to 41.

As to B34, the counts minus background (counts per 20 min) turned out to be 138.

Take B35: the counts minus background (counts per 20 min) was 33.

As to B36, the counts minus background (counts per 20 min) is 252.

Regarding B37, the counts minus background (counts per 20 min) turned out to be 43.

A further test concerns the target HIV-1LAI envelope gp120 labeled with radioactive iodine (HIV-1 LAI) (UniProt P03377). Description: 125I-gp120, peptide array.
Regarding STRL33 109-126 (peptide), the counts minus background (counts per 20 min) was 352 and 510.

As to STRL33 29-46 (peptide), the counts minus background (counts per 20 min) was 534 and 634.

With STRL33 105-122 (peptide), the counts minus background (counts per 20 min) was 500 and 408.

As for STRL33 113-130 (peptide), the counts minus background (counts per 20 min) is 744 and 908.

As for STRL33 297-314 (peptide), the counts minus background (counts per 20 min) is 144 and 82.5.

Take STRL33 61-78 (peptide): the counts minus background (counts per 20 min) is 412 and 348.

Regarding STRL33 309-326 (peptide), the counts minus background (counts per 20 min) is 112 and 122.

Take CCR5 325-342 (peptide): the counts minus background (counts per 20 min) came to 100.

Regarding CCR5 241-258 (peptide), the counts minus background (counts per 20 min) came out at 214.

Consider CCR5 161-178 (peptide), for which the counts minus background (counts per 20 min) amounted to 118.

CCR5 165-182 (peptide): the counts minus background (counts per 20 min) was found to be 98.

Turning to STRL33 33-50 (peptide), the counts minus background (counts per 20 min) is 606 and 372.

As to CCR5 201-218 (peptide), the counts minus background (counts per 20 min) turned out to be 180.

For STRL33 133-150 (peptide), the counts minus background (counts per 20 min) was 702 and 568.

Consider CCR5 221-238 (peptide), for which the counts minus background (counts per 20 min) was 102.

On to CCR5 237-254 (peptide), for which the counts minus background (counts per 20 min) came out at 121.

CCR5 105-122 (peptide): the counts minus background (counts per 20 min) is 80.

In the case of STRL33 41-58 (peptide), the counts minus background (counts per 20 min) is 570 and 284.
